Tests used:
[1] = tested on: baboon smooth muscle cells; assay: Inhibition of PDGF-BB mitogenic activity on baboon smooth muscle cells ([3H] thymidine incorporation); assay type: cell-based; settings: vehicle 74
Method: NNC92-0270 was analyzed for the ability to inhibit the mitogenic activity of PDGF on baboon smooth muscle cells. All mitogenesis assays performed on baboon vascular smooth muscle cells (BVSMCs) were done on primary cultures of cells between passages 13 and 20 in culture. The initial cultures were established from outgrowth of aortic tissue explants. Baboon smooth muscle cells were plated at approximately 20,000 cells per well, in DMEM supplemented with 10% fetal calf serum, into 24-well culture dishes. One day prior to use the culture media was removed, and 1 ml of Mito Media (Table 5) was added to each well to allow the cells to become quiescent. At the time of the experiment the cells were stimulated with PDGF-BB. […] 20× stock solutions were made for each of the PDGF concentrations by dilution in 10 mM acetic acid containing 0.25% albumin, and 50 ul PDGF or dilution vehicle alone was added to the culture wells.
To analyze the activity of NNC92-0270 to neutralize PDGF-BB mitogenic activity, 1 ng/ml of PDGF was added to wells along with dilutions of NNC92-0270. The cells were incubated with the test samples for approximately 20 hours at 37 ° C. Fifty microliters of a 20× stock solution of [3H] Thymidine was then added to each well to give a final concentration of 1 μCi/ml. The cells were incubated for 4 hours at 37 ° C., washed with PBS, then harvested with trypsin and counted for [^3 H] thymidine incorporation in a Wallac (Turku, Finland) Betaplate™ liquid scintillation counter.
NNC92-0270 was incubated with 1 ng/ml of PDGF-BB in the presence of 0.5 U/ml of unfractionated heparin. The cells were pulse labeled with [^3 H] thymidine as described above and the level of [^3 H] thymidine determined.

[2] = tested on: baboon smooth muscle cells; assay: Wash-out study of PDGF-BB mitogenic activity on baboon smooth muscle cells; assay type: cell-based; settings: T = -24 hrs 0.5% DMSO; T = 0 hrs PDGF-BB (1 ng/ml); mean +/- SD; vehicle only 164 +/- 10
Method: NNC92-0270 was analyzed for prolonged inhibitory effect on PDGF-BB mitogenic activity on baboon smooth muscle cells in a wash-out experiment. Baboon SMCs were plated at 20,000 cells per well in a 24-well culture dish and grown for 2 days. The culture media was removed and replaced with Mito Media (Table 5) to allow the cells to become quiescent. The experiment was set up such that cells were treated with NNC92-0270 or vehicle control (0.5% DMSO) for either 24 hours prior to the addition of PDGF-BB, or sequentially with the addition of PDGF-BB. Those cells initially treated with NNC92-0270 or control vehicle for 24 hours, were washed with Mito Media to remove the test compound and then incubated with PDGF-BB (1 ng/ml) for an additional 24 hours. A second set of cells was treated with NNC92-0270 or vehicle control simultaneously with PDGF-BB for 24 hours. The cells were pulse labeled for 4 hours with [^3 H] thymidine (1 μCi/ml final) harvested with trypsin and counted in a Wallac Betaplate counter to determine CPM for [^3 H] thymidine incorporation.
Acetic acid (10 mM) was used as the PDGF-BB vehicle control and 0.5% DMSO was used as the test compound control.

B1: PDGF-BB: platelet derived growth factor BB, mitogenic stimulus used for the standard curve (protein, UniProt P01127 82-190, looked up)
Platelet-derived growth …: SLGSLTIAEPAMIAECKTRTEVFEISRRLIDRTNANFLVWPPCVEVQRCSGCCNNRNVQCRPTQVQLRPVQVRKIEIVRKKPIFKKATVTLEDHLACKCETVAAARPVT
modifications: homodimer
notes: platelet derived growth factor BB, mitogenic stimulus used for the standard curve
3H Thymidine (CPM Incorporated), PDGF-BB standard curve ([1]; PDGF-BB 0.062 ng/ml): 120 CPM
3H Thymidine (CPM Incorporated), PDGF-BB standard curve ([1]; PDGF-BB 0.125 ng/ml): 226 CPM
3H Thymidine (CPM Incorporated), PDGF-BB standard curve ([1]; PDGF-BB 0.25 ng/ml): 392 CPM
3H Thymidine (CPM Incorporated), PDGF-BB standard curve ([1]; PDGF-BB 0.5 ng/ml): 959 CPM
3H Thymidine (CPM Incorporated), PDGF-BB standard curve ([1]; PDGF-BB 1 ng/ml): 1701 CPM
[3H] Thymidine Incorporation (cpm) [2]: 6370 +/- 1303 cpm
